According to publication PMC3846842:
Values joined by “and” are separate entries in the source; they are usually repeats but may differ in a detail not shown here. Identical values can stand only once.

Tests used:
[1] = target: BteA32-287 (Bordetella pertussis); test: MST; labeled BteA287 or BteA32-287 (NT-495 BLUE-NHS) mixed with BtcA serially diluted from 200 uM or 100 uM; 20 mM Tris 8, 350 mM NaCl, 20 mM EDTA, 0.05% Tween-20; 20°C; logistic dose-response fit, three measurements averaged
[2] = target: BteA287 (BteA N-terminal domain, residues 1-287) (Bordetella pertussis); test: as above
[3] = target: BtcA (Bordetella pertussis); test: cross-linking; BtcA about 4 mg/ml in PBS with serially diluted EGS (from 3 mM), 30 min at RT, SDS-PAGE
[4] = target: BteA287 (BteA N-terminal domain, residues 1-287) (Bordetella pertussis); test: MALDI-TOF MS; BtcA-BteA287 complex, linear mode, m/z 20,000 to 150,000; the methods describe EGS cross-linking of the complex before MALDI-TOF analysis
[5] = target: BtcA (Bordetella pertussis); test: SEC-RALS; BtcA (525 ug) on Superdex 200 10/300 with triple detector array; 20 mM Tris pH 8.0, 350 mM NaCl, 20 mM EDTA

Substance | Kd [1] [µM] | Kd [2] [µM] | stoichiometry N [3] | stoichiometry N (BtcA per BteA287) [4] | stoichiometry N [5] | stoichiometry N [4]
BtcA (natural protein) | 14 | 6.6 | 2 | 1 and 2 | 2 | –
BteA287 (BteA N-terminal domain, residues 1-287) (domain or fragment) | – | – | – | – | – | 2
